Measured values as given in PMC5590881, “Xenon for tunnelling analysis of the efflux pump component OprN” (PLoS ONE, 2017).

Biological target: the molecule itself
Test: crystal structure; OprN-wt crystals and OprN-Xe crystals (OprN-wt crystals under 2 MPa xenon), space group I4, T = 100 K; grown at 18°C in 100 mM sodium acetate pH 5.4, 0.8–1.1 M sodium formate, 9–11% PEG 4000; protein in 0.9% β-OG

B1: OprN, the outer membrane channel of the MexEF efflux pump from Pseudomonas aeruginosa (natural protein)
chain: CTVGPDYRTPDTAAAKIDATASKPYDRSRFESLWWKQFDDPTLNQLVEQSLSGNRDLRVAFARLRAARALRDDVANDRFPVVTSRASADIGKGQQPGVTEDRVNSERYDLGLDSAWELDLFGRIRRQLESSDALSEAAEADLQQLQVSLIAELVDAYGQLRGAQLREKIALSNLENQKESRQLTEQLRDAGVGAELDVLRADARLAATAASVPQLQAEAERARHRIATLLGQRPEELTVDLSPRDLPAITKALPIGDPGELLRRRPDIRAAERRLAASTADVGVATADLFPRVSLSGFLGFTAGRGSQIGSSAARAWSVGPSISWAAFDLGSVRARLRGAKADADAALASYEQQVLLALEESANAFSDYGKRQERLVSLVRQSEASRAAAQQAAIRYREGTTDFLVLLDAEREQLSAEDAQAQAEVELYRGIVAIYRSLGGGWQPSA
modifications: palmitoylation at the N-terminus Cys residue (dual acylation observed at the same cysteine)
notes: OprN, outer membrane factor of the MexEF-OprN efflux pump, Pseudomonas aeruginosa; the oprN gene was cloned; the chain in the crystal begins at the acylated Cys; 1341 amino acids built in the trimer; Homotrimer in the crystal (chains A, B, C); also called OprN-wt; OprN-Xe; source: C43-ΔacrB strain, pBAD-33, purified from the outer membrane (DDM, β-OG; Ni-NTA, Superose 6 SEC); not shown: His6, …
B1 was tested, and the “stoichiometry N” value was 3.
